According to US8409836B2, “Treatment of cellulosic material and enzymes useful therein” (Roal Oy, priority 2005, dated 2013):

Key:
Assay type in all cases: biochemical
[1] = Specific activity against Avicel; details: 50° C., pH 5.0, 24 h, 1% substrate, 0.25 μM enzyme
Procedure: (§1) The specific activity of the preparations was determined using 4-methylumbelliferyl-β-D-lactoside (MUL), 4-methylumbelliferyl-β-D-cellobioside (MUG2) or 4-methylumbelliferyl-β-D-cellotrioside (MUG3) as substrate (van Tilbeurgh et al., 1988) in 0.05 M sodium citrate buffer pH 5 at 50° C. for 10 min. Endoglucanase and xylanase activities were determined by standard procedures (according to IUPAC, 1987) using carboxymethyl cellulose (CMC) and birch glucuronoxylan (Bailey et al., 1992) as substrates. Specific activity against Avicel was calculated on the basis of reducing sugars formed in a 24 h reaction at 50° C., pH 5.0, with 1% substrate and 0.25 μM enzyme dosage. The protein content of the purified enzyme preparations was measured according to Lowry et al., 1951. To characterize the end products of hydrolysis, soluble sugars liberated in 24 h hydrolysis experiment, as described above, were analysed by HPLC (Dionex). Purified cellobiohydrolase I (CBHI/Cel7A) of Trichoderma reesei was used as a reference.

[2] = Specific activity on MUL; details: purified cellobiohydrolases, 50° C., pH 5.0
Procedure: as §1

[3] = Thermal stability of purified cellobiohydrolases; details: 0.1% BSA, pH 5.0, 60 min, MUL substrate
Procedure: Thermal stability of the purified cellobiohydrolases was determined at different temperatures. The reaction was performed in the presence of 0.1% BSA at pH 5.0 for 60 min using 4-methylumbelliferyl-β-D-lactoside as substrate. C. thermophilum ALKO4265 CBH/Cel7A and A. thermophilum ALKO4245 CBH/Cel7A were stable up to 65° and 60° C., respectively. The T. reesei reference enzyme (CBHI/Cel7A) retained 100% of activity up to 55° C.

[4] = Endoglucanase activity on carboxymethyl cellulose; details: purified cellobiohydrolases, 50° C., pH 5.0
Procedure: as §1
(§2) Acremonium thermophilum ALKO4245 was grown as described in Example 1. The culture supernatant was incubated at 70° C. for 24 hours after which it was concentrated by ultrafiltration. The pure endoglucanase was obtained by sequential purification with hydrophobic interaction and cation exchange chromatography followed by gel filtration. The endoglucanase activity of the fractions collected during purification was determined using carboxymethyl cellulose (CMC) as substrate (procedure of IUPAC 1987). Protein content was measured by BioRad Assay Kit (Bio-Rad Laboratories) using bovine serum albumine as standard.
as §2, with “Thermoascus aurantiacus ALKO4242 was” for “Acremonium thermophilum ALKO4245 was”, “1.” for “1. The culture supernatant was incubated at 70° C. for 24 hours after which it was concentrated by ultrafiltration.”, “and anion” for “and cation”

[5] = Hydrolysis with CBH enzyme mixtures, Avicel; details: additional enzymes EGII, bG; 48 h, 45° C., pH 5.0
Method in brief: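 Each CBH/Cel7 dosed at 14.5 mg/g substrate dry matter with T. reesei EGII/Cel5A (3.6 mg/g) or with EGI (1.8 mg/g), EGII (1.8 mg/g), xylanase (5000 nkat/g) and AXE (250 nkat/g), plus β-glucosidase (176 nkat/g d.w.). Avicel at 10 mg/ml in 0.05 M sodium acetate, stirred 48 h at 45° C, triplicates; reducing sugars by DNS versus glucose standard.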

[6] = Specific activity on MUG3; details: purified cellobiohydrolases, 50° C., pH 5.0
Procedure: as §1

[7] = Hydrolysis with CBH enzyme mixtures, spruce; details: additional enzymes EGII, bG; 48 h, 45° C., pH 5.0
Method in brief: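 Washed SO2-steam pre-treated spruce (10 mg dry matter/ml, 0.05 M sodium acetate) hydrolysed 48 h at 45 °C with each CBH/Cel7 (14.5 mg/g) plus T. reesei EGII (3.6 mg/g), or plus EGI, EGII, xylanase and AXE, all with added β-glucosidase. Reducing sugars measured by DNS against glucose.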

[8] = Specific activity on MUG2; details: purified cellobiohydrolases, 50° C., pH 5.0
Procedure: as §1

[9] = Xylanase activity on birch xylan; details: purified cellobiohydrolases, 50° C., pH 5.0
Procedure: as §1
Acremonium thermophilum ALKO4245 was grown as described in Example 1. The culture supernatant was incubated at 70° C. for 24 hours after which, it was concentrated by ultrafiltration. The pure xylanase was obtained by sequential purification with hydrophobic interaction and cation exchange chromatography followed by gel filtration. The xylanase activity was determined using birch xylan as substrate (procedure of IUPAC 1987). Protein was assayed by BioRad Protein Assay Kit (Bio-Rad Laboratories) using bovine serum albumin as standard.
Thermoascus aurantiacus ALKO4242 was grown as described in Example 1. The pure xylanase was obtained by sequential purification with hydrophobic interaction, anion, and cation exchange chromatography followed by gel filtration. The xylanase activity was determined using birch xylan as substrate (procedure of IUPAC 1987). Protein was assayed by BioRad Protein Assay Kit (Bio-Rad Laboratories) using bovine serum albumin as standard.

[10] = Hydrolysis with CBH enzyme mixtures, willow; details: additional enzymes EGII, bG, 48 h, 45° C., pH 5.0
Method in brief: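 Purified CBH/Cel7 (14.5 mg/g substrate dry matter) combined with T. reesei EGII/Cel5A (3.6 mg/g) or with EGI (1.8 mg/g), EGII (1.8 mg/g), xylanase pI 9 (5000 nkat/g) and AXE (250 nkat/g), plus β-glucosidase (176 nkat/g). Washed steam-pretreated willow, 10 mg/ml in 0.05 M sodium acetate, 45° C., 48 h. Reducing sugars by DNS (glucose standard).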

[11] = Thermal stability of recombinant Cel7 enzymes; details: MUL activity, optimum pH, reaction time 1 h
Procedure: (§3) The recombinant CBH/Cel7 enzyme preparations were characterized in terms of pH optimum and thermal stability. The pH optimum of the recombinant CBH/Cel7 proteins from Thermoascus aurantiacus, Chaetomium thermophilum, and Acremonium thermophilum were determined in the universal McIlvaine buffer within a pH range of 3.0-8.0 using 4-methylumbelliferyl-β-D-lactoside (MUL) as a substrate (FIG. 3A). The pH optimum for Ct Cel7A and At Cel7A enzymes is at 5.5, above which the activity starts to gradually drop. The pH optimum of the recombinant crude Ta Cel7A is at 5.0 (FIG. 3A). Thermal stability of the recombinant Cel7 enzymes was determined by measuring the MUL activity in universal McIlvaine buffer at the optimum pH with reaction time of 1 h.

[12] = Hydrolysis with CBH enzyme mixtures, corn stover; details: additional enzymes EGII, bG, 48 h, 45° C., pH 5.0
Method in brief: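 Purified recombinant CBH/Cel7 (14.5 mg/g substrate dry matter) combined with T. reesei EGII/Cel5A or an EGI/EGII/xylanase/AXE mixture, plus β-glucosidase (176 nkat/g). Washed wet-oxidized corn stover, 10 mg/ml in 0.05 M sodium acetate, stirred 48 h at 45° C, triplicate. Reducing sugars by DNS against glucose, versus inactivated-enzyme references.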

[13] = pH optimum of recombinant CBH/Cel7 proteins; details: McIlvaine buffer, pH range 3.0-8.0, MUL, 50° C., 10 min
Procedure: as §3

Hydrolysis products as reducing sugars, Avicel [5]: 5.3 mg/mL
Hydrolysis products as reducing sugars, SPRUCE [7]: 3.3 mg/mL
Hydrolysis products as reducing sugars, WILLOW ([10]; EGI, XYL, AXE): 5.4 mg/mL
Hydrolysis products as reducing sugars, WILLOW [10]: 3.3 mg/mL
Hydrolysis products as reducing sugars, WOCS ([12]; EGI, XYL, AXE): 6.4 mg/mL
Hydrolysis products as reducing sugars, WOCS [12]: 4.5 mg/mL
B1: At Cel7A: cellobiohydrolase of Acremonium thermophilum ALKO4245, gene At cel7A, amino acid SEQ ID NO: 6, with CBD (protein)
chain: MYTKFAALAALVATVRGQAACSLTAETHPSLQWQKCTAPGSCTTVSGQVTIDANWRWLHQTNSSTNCYTGNEWDTSICSSDTDCATKCCLDGADYTGTYGVTASGNSLNLKFVTQGPYSKNIGSRMYLMESESKYQGFTLLGQEFTFDVDVSNLGCGLNGALYFVSMDLDGGVSKYTTNKAGAKYGTGYCDSQCPRDLKFINGQANIDGWQPSSNDANAGLGNHGSCCSEMDIWEANKVSAAYTPHPCTTIGQTMCTGDDCGGTYSSDRYAGICDPDGCDFNSYRMGDTSFYGPGKTVDTGSKFTVVTQFLTGSDGNLSEIKRFYVQNGKVIPNSESKIAGVSGNSITTDFCTAQKTAFGDTNVFEERGGLAQMGKALAEPMVLVLSVWDDHAVNMLWLDSTYPTDSTKPGAARGDCPITSGVPADVESQAPNSNVIYSNIRFGPINSTYTGTPSGGNPPGGGTTTTTTTTTSKPSGPTTTTNPSGPQQTHWGQCGGQGWTGPTVCQSPYTCKYSNDWYSQCL
Specific activity, Avicel [1]: 1.8 nkat/mg
Specific activity, MUL [2]: 21.5 nkat/mg
Thermal stability: temperature up to which stable / 100% of activity retained [3]: ≤ 60 °C
Specific activity, CMC [4]: 26.2 nkat/mg
Specific activity, MUG3 [6]: 1.3 nkat/mg
Specific activity, MUG2 [8]: 9.2 nkat/mg
Specific activity, Xylan [9]: 11.3 nkat/mg
Thermal stability at the higher temperatures (≧65° C.) [11]: clearly less stable
pH optimum [13]: 5.5
